This is an account of results in EP2975059A1.

For the assay, the target named is Human PCSK9 form a' (human). Description: SPR ProteOn XPR36, antibody captured on anti-human IgG, PCSK9 variant as analyte, 25 C, 1:1 model.

Substance Evolocumab (antibody) registered a dissociation constant (Kd) of 0.185 nM, a koff of 2.29e-05 s⁻¹ and a kon of 124000 M⁻¹ s⁻¹.

As a reminder, the Kd is the free concentration of one partner at which half of the binding sites on the other are occupied at equilibrium, for simple one-to-one binding. A high value points to lower affinity. A word on the koff: it is the first-order rate constant of dissociation. High values mean a short-lived complex, low ones a long-lived complex. For orientation: kon means a measure of how fast the partners come together.
